Assay results reported in article PMC8080076.

Target: DEC205 (human (endogenous in blood DCs)) (UniProt O60449)
Assay: flow cytometry on cells

Chain of UniProt O60449 (O60449 28-1722): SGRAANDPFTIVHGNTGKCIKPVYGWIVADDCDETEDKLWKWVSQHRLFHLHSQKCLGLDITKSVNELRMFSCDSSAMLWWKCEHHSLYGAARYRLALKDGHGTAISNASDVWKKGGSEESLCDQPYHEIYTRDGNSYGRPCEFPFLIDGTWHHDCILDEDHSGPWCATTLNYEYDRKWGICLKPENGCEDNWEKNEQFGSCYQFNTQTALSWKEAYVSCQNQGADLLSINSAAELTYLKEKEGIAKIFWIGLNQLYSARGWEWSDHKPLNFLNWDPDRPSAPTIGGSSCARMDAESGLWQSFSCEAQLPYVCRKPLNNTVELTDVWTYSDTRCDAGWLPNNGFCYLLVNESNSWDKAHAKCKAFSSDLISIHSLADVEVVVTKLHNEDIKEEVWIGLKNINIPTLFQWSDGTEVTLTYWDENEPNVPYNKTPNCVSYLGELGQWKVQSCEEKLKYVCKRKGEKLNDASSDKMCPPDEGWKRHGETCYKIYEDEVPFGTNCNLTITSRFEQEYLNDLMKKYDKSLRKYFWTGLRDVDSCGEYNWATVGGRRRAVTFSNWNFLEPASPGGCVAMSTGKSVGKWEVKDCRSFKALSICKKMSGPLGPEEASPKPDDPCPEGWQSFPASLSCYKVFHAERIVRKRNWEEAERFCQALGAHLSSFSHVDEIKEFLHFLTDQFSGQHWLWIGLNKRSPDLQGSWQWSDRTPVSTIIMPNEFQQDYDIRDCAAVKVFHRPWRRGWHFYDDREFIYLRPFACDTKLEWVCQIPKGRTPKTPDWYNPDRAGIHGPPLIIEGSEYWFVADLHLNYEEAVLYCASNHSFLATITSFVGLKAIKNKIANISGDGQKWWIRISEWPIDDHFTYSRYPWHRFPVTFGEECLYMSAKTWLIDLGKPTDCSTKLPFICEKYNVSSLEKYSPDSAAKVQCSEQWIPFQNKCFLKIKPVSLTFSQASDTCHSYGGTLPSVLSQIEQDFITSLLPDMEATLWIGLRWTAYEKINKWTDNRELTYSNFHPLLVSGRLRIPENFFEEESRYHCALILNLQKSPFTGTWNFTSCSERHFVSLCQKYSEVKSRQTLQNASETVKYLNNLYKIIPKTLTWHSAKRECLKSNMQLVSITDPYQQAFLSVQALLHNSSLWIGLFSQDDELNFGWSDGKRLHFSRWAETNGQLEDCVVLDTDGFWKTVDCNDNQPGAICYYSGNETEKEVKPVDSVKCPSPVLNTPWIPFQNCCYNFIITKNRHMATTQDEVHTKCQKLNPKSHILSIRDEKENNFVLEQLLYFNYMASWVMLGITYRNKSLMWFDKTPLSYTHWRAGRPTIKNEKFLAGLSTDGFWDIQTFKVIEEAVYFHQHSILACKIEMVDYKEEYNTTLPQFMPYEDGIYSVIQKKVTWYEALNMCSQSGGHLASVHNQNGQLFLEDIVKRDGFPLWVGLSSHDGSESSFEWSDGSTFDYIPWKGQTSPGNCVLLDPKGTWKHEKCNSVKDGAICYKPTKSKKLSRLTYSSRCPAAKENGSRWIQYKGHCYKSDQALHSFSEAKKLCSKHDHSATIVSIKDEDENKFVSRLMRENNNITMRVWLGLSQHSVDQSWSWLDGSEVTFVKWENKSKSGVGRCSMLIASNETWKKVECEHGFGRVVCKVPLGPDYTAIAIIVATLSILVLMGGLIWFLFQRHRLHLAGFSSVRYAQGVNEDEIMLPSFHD

Substance: FITC-labeled HDM-derived PDI, recombinant (enzyme)
- percent of DEC205+ DCs bound by FITC-PDI: > 50%
